Laboratory results: US20130078247A1

Target: cynomolgus Ang2 (cynomolgus)
Experiment: competition ELISA: cAng2 binding to cTie2

B1: 00050 (VHH)
VHH: EVQLVESGGGLVQPGGSLRLSCAASGFTFDDYALGWFRQAPGKEREGVSCIRCSDGSTYYADSVKGRFTISSDNSKNTVYLQMNSLRPEDTAVYYCAASIVPRSKLEPYEYDAWGQGTLVTVSS
- IC50 (read off the curve): 10 nM
